# Laboratory results from publication PMC6057269 (2018).
# B1: GST-tagged FCHSD2 SH3-2 (aa568-629), wild type [human] / ITSN1 SH3d (aa1076-1138), recombinant [human] (parent complex)
# chain 1: SVCFVKALYDYEGQTDDELSFPEGAIIRILNKENQDDDGFWEGEFNGRIGVFPSVLVEELSA
# chain 2: PEIAQVIASYTATGPEQLTLAPGQLILIRKKNPGGWWEGELQARGKKRQIGWFPANYVKLLSP
# B2: GST-tagged ITSN1 SH3d (aa1076-1138), wild type [human] / FCHSD2 SH3-2 (aa568-629), recombinant [human] (parent complex)
# chain 1: B1 chain 2
# chain 2: B1 chain 1
# Variants of: B1
# Test: GST pull-down, Coomassie stained gel, band quantification; n = 3 experiments, mean ± SD; parent: 1; read off a plot
row,Variant,ratio to parent
1,chain 1 F40S,~0.3
2,chain 1 N46A,~1.2
3,chain 1 D17K,~0.9
4,chain 1 D16A,~1.1

# Continued, values first:
row,ratio to parent,Variant
1,~0.45,chain 1 Y9S
2,~0.1,"chain 1 V55K, chain 1 L56K"
3,~0.8,chain 1 V55S
4,~0.15,"chain 1 Y9S, chain 1 F40S"

# Variants of: B2
# Test: as above
row,ratio to parent,Variant
1,~0.4,chain 1 R48E
2,~0.08,chain 1 R44A
3,~0.08,chain 1 R44E
4,~1.1,chain 1 T11A
5,~0.08,chain 1 I3K
6,~0.08,chain 1 I3S
